# Measured values from PMC11187563, “The importance of tyrosines in multimers of cyclic RGD nonapeptides: towards αvβ6-integrin targeted radiotherapeutics” (RSC Medicinal Chemistry, 2024).
# Read-outs that look alike come from different tables or passages of the source.
# Test: Ex vivo biodistribution of 177Lu-labeled peptide tetramers in H2009 xenografted SCID mice
# Conditions: CB17 SCID, mouse, iv, total radioactivity; for tissue uptake at 1.5 h: 90 min p.i.; for tissue uptake at 72 h: 199 pmol, 3 d p.i.; for tissue uptake at 24 h: 154 pmol, 24 h p.i.
# Summary of the method: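 SCID mice carried subcutaneous H2009 xenografts on the right shoulder. 177Lu-labeled conjugates were injected i.v., and ex vivo organ distribution was measured at two time points post-injection.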
# [1] = adrenals, H2009 bearing SCID mice, read-out: Adrenals %IA/g
# [2] = blood, H2009 bearing SCID mice, read-out: Blood %IA/g
# [3] = bone, H2009 bearing SCID mice, read-out: Bone %IA/g
# [4] = heart (myocard), H2009 bearing SCID mice, read-out: Heart (myocard) %IA/g
# [5] = kidneys, H2009 bearing SCID mice, read-out: Kidneys %IA/g
# [6] = large intestine (empty), H2009 bearing SCID mice, read-out: Large intestine (empty) %IA/g
# [7] = liver, H2009 bearing SCID mice, read-out: Liver %IA/g
# [8] = lung, H2009 bearing SCID mice, read-out: Lung %IA/g
# [9] = muscle, H2009 bearing SCID mice, read-out: Muscle %IA/g
# [10] = pancreas, H2009 bearing SCID mice, read-out: Pancreas %IA/g
# [11] = small intestine (empty), H2009 bearing SCID mice, read-out: Small intestine (empty) %IA/g
# [12] = spleen, H2009 bearing SCID mice, read-out: Spleen %IA/g
smiles,measurement,setting,value
"CC(C)C[C@@H]1NC(=O)[C@H](CC(=O)O)NC(=O)CNC(=O)[C@H](CCCNC(=N)N)NC(=O)[C@H](Cc2ccc(O)cc2)NC(=O)[C@H](CCCCNC(=O)CCc2cn(CCCNC(=O)CCP(=O)(O)CN3CCN(CP(=O)(O)CCC(=O)NCCCn4cc(CCC(=O)NCCCC[C@H]5C(=O)N[C@@H](Cc6ccc(O)cc6)C(=O)N[C@@H](CCCNC(=N)N)C(=O)NCC(=O)N[C@@H](CC(=O)O)C(=O)N[C@@H](CC(C)C)C(=O)N[C@@H](C)C(=O)N[C@@H](Cc6ccc(O)cc6)C(=O)N6CCC[C@@H]6C(=O)N5C)nn4)CCN(CP(=O)(O)CCC(=O)NCCCn4cc(CCC(=O)NCCCC[C@H]5C(=O)N[C@@H](Cc6ccc(O)cc6)C(=O)N[C@@H](CCCNC(=N)N)C(=O)NCC(=O)N[C@@H](CC(=O)O)C(=O)N[C@@H](CC(C)C)C(=O)N[C@@H](C)C(=O)N[C@@H](Cc6ccc(O)cc6)C(=O)N6CCC[C@@H]6C(=O)N5C)nn4)CCN(CP(=O)(O)CCC(=O)NCCCn4cc(CCC(=O)NCCCC[C@H]5C(=O)N[C@@H](Cc6ccc(O)cc6)C(=O)N[C@@H](CCCNC(=N)N)C(=O)NCC(=O)N[C@@H](CC(=O)O)C(=O)N[C@@H](CC(C)C)C(=O)N[C@@H](C)C(=O)N[C@@H](Cc6ccc(O)cc6)C(=O)N6CCC[C@@H]6C(=O)N5C)nn4)CC3)nn2)N(C)C(=O)[C@H]2CCCN2C(=O)[C@H](Cc2ccc(O)cc2)NC(=O)[C@H](C)NC1=O [Compound 177Lu-Y8, metal not drawn]",tissue uptake at 1.5 h,"H2009 tumor, 124 pmol, H2009 bearing SCID mice, read-out: Tumor H2009 %IA/g",5.89 %ID/g
same,tissue uptake at 72 h,"H2009 tumor, H2009 bearing SCID mice, read-out: Tumor H2009 %IA/g",1.67 %ID/g
same,tissue uptake at 1.5 h,"adrenals, 124 pmol, H2009 bearing SCID mice, read-out: Adrenals %IA/g",0.71 %ID/g
same,tissue uptake at 24 h,[1],0.25 %ID/g
same,tissue uptake at 72 h,[1],0.22 %ID/g
same,tissue uptake at 1.5 h,"adrenals, + 50 nmol non-labeled compound 10 min prior to activity, n = 2, read-out: Adrenals %IA/g, + 50 nmol cold",0.53 %ID/g
same,tissue uptake at 1.5 h,"blood, 124 pmol, H2009 bearing SCID mice, read-out: Blood %IA/g",2.54 %ID/g
same,tissue uptake at 24 h,[2],0.04 %ID/g
same,tissue uptake at 72 h,[2],0.03 %ID/g
same,tissue uptake at 1.5 h,"blood, + 50 nmol non-labeled compound 10 min prior to activity, n = 2, read-out: Blood %IA/g, + 50 nmol cold",1.06 %ID/g
same,tissue uptake at 1.5 h,"bone, 124 pmol, H2009 bearing SCID mice, read-out: Bone %IA/g",3.24 %ID/g
same,tissue uptake at 24 h,[3],0.68 %ID/g
same,tissue uptake at 72 h,[3],0.57 %ID/g
same,tissue uptake at 1.5 h,"bone, + 50 nmol non-labeled compound 10 min prior to activity, n = 2, read-out: Bone %IA/g, + 50 nmol cold",0.76 %ID/g
same,tissue uptake at 1.5 h,"heart (myocard), 124 pmol, H2009 bearing SCID mice, read-out: Heart (myocard) %IA/g",1.01 %ID/g
same,tissue uptake at 24 h,[4],0.16 %ID/g
same,tissue uptake at 72 h,[4],0.13 %ID/g
same,tissue uptake at 1.5 h,"heart (myocard), + 50 nmol non-labeled compound 10 min prior to activity, n = 2, read-out: Heart (myocard) %IA/g, + 50 nmol cold",0.64 %ID/g
same,tissue uptake at 1.5 h,"kidneys, 124 pmol, H2009 bearing SCID mice, read-out: Kidneys %IA/g",166 %ID/g
same,tissue uptake at 24 h,[5],235 %ID/g
same,tissue uptake at 72 h,[5],237 %ID/g
same,tissue uptake at 1.5 h,"kidneys, + 50 nmol non-labeled compound 10 min prior to activity, n = 2, read-out: Kidneys %IA/g, + 50 nmol cold",178 %ID/g
same,tissue uptake at 1.5 h,"large intestine (empty), 124 pmol, H2009 bearing SCID mice, read-out: Large intestine (empty) %IA/g",3.66 %ID/g
same,tissue uptake at 24 h,[6],1.46 %ID/g
same,tissue uptake at 72 h,[6],0.48 %ID/g
same,tissue uptake at 1.5 h,"large intestine (empty), + 50 nmol non-labeled compound 10 min prior to activity, n = 2, read-out: Large intestine (empty) %IA/g, + 50 nmol cold",0.89 %ID/g
same,tissue uptake at 1.5 h,"liver, 124 pmol, H2009 bearing SCID mice, read-out: Liver %IA/g",1.16 %ID/g
same,tissue uptake at 24 h,[7],0.98 %ID/g
same,tissue uptake at 72 h,[7],0.7 %ID/g
same,tissue uptake at 1.5 h,"liver, + 50 nmol non-labeled compound 10 min prior to activity, n = 2, read-out: Liver %IA/g, + 50 nmol cold",0.7 %ID/g
same,tissue uptake at 1.5 h,"lung, 124 pmol, H2009 bearing SCID mice, read-out: Lung %IA/g",5.63 %ID/g
same,tissue uptake at 24 h,[8],1.2 %ID/g
same,tissue uptake at 72 h,[8],0.73 %ID/g
same,tissue uptake at 1.5 h,"lung, + 50 nmol non-labeled compound 10 min prior to activity, n = 2, read-out: Lung %IA/g, + 50 nmol cold",3.39 %ID/g
same,tissue uptake at 1.5 h,"muscle, 124 pmol, H2009 bearing SCID mice, read-out: Muscle %IA/g",0.87 %ID/g
same,tissue uptake at 24 h,[9],0.36 %ID/g
same,tissue uptake at 72 h,[9],0.23 %ID/g
same,tissue uptake at 1.5 h,"muscle, + 50 nmol non-labeled compound 10 min prior to activity, n = 2, read-out: Muscle %IA/g, + 50 nmol cold",0.2 %ID/g
same,tissue uptake at 1.5 h,"pancreas, 124 pmol, H2009 bearing SCID mice, read-out: Pancreas %IA/g",0.42 %ID/g
same,tissue uptake at 24 h,[10],0.14 %ID/g
same,tissue uptake at 72 h,[10],0.12 %ID/g
same,tissue uptake at 1.5 h,"pancreas, + 50 nmol non-labeled compound 10 min prior to activity, n = 2, read-out: Pancreas %IA/g, + 50 nmol cold",0.19 %ID/g
same,tissue uptake at 1.5 h,"small intestine (empty), 124 pmol, H2009 bearing SCID mice, read-out: Small intestine (empty) %IA/g",3 %ID/g
same,tissue uptake at 24 h,[11],1.03 %ID/g
same,tissue uptake at 72 h,[11],0.16 %ID/g
same,tissue uptake at 1.5 h,"small intestine (empty), + 50 nmol non-labeled compound 10 min prior to activity, n = 2, read-out: Small intestine (empty) %IA/g, + 50 nmol cold",0.62 %ID/g
same,tissue uptake at 1.5 h,"spleen, 124 pmol, H2009 bearing SCID mice, read-out: Spleen %IA/g",8.41 %ID/g
same,tissue uptake at 24 h,[12],1.89 %ID/g
same,tissue uptake at 72 h,[12],2.01 %ID/g
